For three variants, response (% PLA positive cells) results are on record in article PMC5675595.

To fix the notation:
B1: FLAG-tagged IRAK2 WT [mouse] / ALYREF [human (endogenous in IL1R-293 and HeLa)] (parent)
chain 1: MACYIYQLPSWVLDDLCRNIDTLSEWDWMQFASYVITDLTQLRKIKSMERVQGVSITRELLWWWSMRQATVQQLVDLLCHLELYRAAQIVLSWKPVPESTSPLPAFPEAVKPGAVATSRRNLKDEQEKVRPVKPRSLLDTGPIMAGAQRQRPCEMDAPCSLKTDAPDSPQSKYCSTSTSAPKQERLLGLPGDRLFWSEADVVQATEDFDQSHRISEGTFADIYQGQRNGVAFAFKKLREVAGSSPGSMDRFLQAEMQLCLRCCHANVLPLLGFCTGRQFHSLIYPYMANGSLHDRLWAQGNSDMLPWPQRASICSGLLLAVEHLHSLDIIHSNVKSANVLLDQHLNPKLAHPVAHPHPDNKKTKYTVMRTHLFQASAAYLPEHFIRVGQLTKQVDIFSCGIVLAEVLTGIPAMDKDRSPVYLKDLLLSEIPNSTSSVCSRKTSMGKAVVKEICQRHVEKRAGLLPEACEEAWATAVSVCLRRRNASVEEARVSLAGVEEQLRGQLSLPWSRVSEATGSSSNTPEETDDVDNSSLSVPSLVMMASCPGAASSPLFTGHGAAQPSTSGRQEADSSSEACTGPQTPQNATETSWKIEINEAKRRLMENIVLYKEERLDSSELFGP
chain 2: not shown

The variants in the assay derive from B1. Kind of assay: proximity ligation assay (PLA). The note with it: with ALYREF [human (endogenous in IL1R-293 and HeLa)]; Hela cells transfected; Mouse anti-ALYREF and Rabbit anti-FLAG antibody; read off a plot.
On to chain 1 K123R K182R K592R, for which the response (% PLA positive cells) worked out at 0.45. The result for chain 1 K235A K236A reads 0.2; that for chain 1 K361A K362A K364A, 0.6.
